The assay addresses SARS-CoV-2 (2019-nCoV) Spike S1-His Recombinant Protein (Sino Biological Catalog Number 40591-V08H) (SARS-CoV-2) (UniProt P0DTC2).

A value given as a limit tells only on which side of the number the result lay.

Galanthus nivalis agglutinin (GNA), sequence (P30617 24-128 limits assumed): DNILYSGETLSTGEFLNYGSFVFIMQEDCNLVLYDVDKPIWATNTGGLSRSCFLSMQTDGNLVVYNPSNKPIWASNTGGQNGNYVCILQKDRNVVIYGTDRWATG

Take “Galanthus nivalis agglutinin (GNA) (from UniProt P30617 24-128)”: the percent of S1 depleted from solution at 15 minutes was > 90%.

These data come from patent publication US12409260.
